In US20240209104A1:

Key:
[1] = target: OX40 on OX40 over-expressed cells (UniProt P43489); experiment: flow cytometry, 1 µg/ml isotype control on OX40 over-expressed cells (PBS: 1388)
[2] = target: OX40 on OX40 over-expressed cells (UniProt P43489); experiment: flow cytometry, 1 µg/ml positive reference on OX40 over-expressed cells

Sequence of OX40 on OX40 over-expressed cells (P43489 29-277): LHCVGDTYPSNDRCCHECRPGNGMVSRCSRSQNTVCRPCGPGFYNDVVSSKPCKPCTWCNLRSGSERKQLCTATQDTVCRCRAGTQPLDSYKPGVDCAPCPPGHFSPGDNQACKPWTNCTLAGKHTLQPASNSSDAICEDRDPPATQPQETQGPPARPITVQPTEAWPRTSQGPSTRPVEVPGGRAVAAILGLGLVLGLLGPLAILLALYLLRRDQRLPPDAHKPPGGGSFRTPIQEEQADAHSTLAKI

| Y586 channel PE fluorescence value [1] | Y586 channel PE fluorescence value [2] | Substance |
| --- | --- | --- |
| 1830 |  | IgG2a isotype control (clone MG2a-53, Biogene) (antibody) |
|  | 210000 | anti-OX40 antibody (clone ACT35, Biogene) |
